As usually defined, the Kd is the equilibrium constant for the complex coming apart. High values mean lower affinity, low ones higher affinity.

Data on three compounds can be found in PMC6733935, “A convenient and efficient total solid-phase synthesis of DOTA-functionalized tumor-targeting peptides for PET imaging of cancer” (EJNMMI Research, 2019).

Data set [1] addresses T1, BN/GRP receptor-positive PC3 human prostate cancer cells (Homo sapiens, UniProt P30550).
T1 construct: BN/GRP receptor-positive MDA-MB-231, MCF7, T47D human breast cancer, and PC3 human prostate cancer lines; host or cells: MDA-MB-231, MCF7, T47D (human breast cancer), PC3 (human prostate cancer); intact cells
Nature of the data set: Saturation binding assay on PC3 cells. The conditions noted are these: n = 3-5 experiments; for Bmax (apparent number of binding sites per cell): SD < 15%; for Kd: ~300,000 cells, 0.1-25 nM radiopeptide, 60 min, room temperature, mean ± SD. On the procedure: (§1) The cell binding of ^68Ga-radiolabeled peptides into BN/GRP receptor-positive MDA-MB-231, MCF7, T47D human breast cancer, and PC3 human prostate cancer lines (American Type Culture Collection, Rockville, MD, USA) was performed according to the method described previously. In brief, ∼ 300,000 cells (in 300 μL in low-serum media) were incubated with various amounts of radiopeptides, ranging between 0.1 and 25 nM of peptide (prepared from the serial dilutions of HPLC-purified radiopeptides), in duplicate for 60 min at room temperature. The initial concentrations of ^68Ga-labeled peptides were determined according to a well-established HPLC technique with simultaneous detection by UV absorbance. As the amount of BN peptide in the reaction mixture was too small to be detected by UV absorption at 220 nm, the radioactive peptide chromatograms from the HPLC analysis were compared (with UV chromatograms) with those of known concentrations of the corresponding nonradioactive peptides for the mass determination. Incubation was terminated by dilution with cold saline (300 μL) and the cells were pelleted by centrifugation. The cell pellets was then rapidly washed with cold saline to remove any unbound peptide and centrifuged to collect supernatants. Radioactivity in the cell pellet and the washings was measured in a γ-counter. Non-specific binding was determined in the presence of ~ 200-fold molar excess of unlabeled BN peptide. Specific binding is calculated by subtracting the non-specifically bound radioactivity from that of the total binding. The dissociation constant (Kd) was calculated using a plot of cell bound activity versus the concentration of the radioligand using GraphPad Prism software (GraphPad Software Inc., San Diego, CA, USA).

Data set [2] concerns the target T2, BN/GRP receptor-positive T47D human breast cancer cells (Homo sapiens, UniProt P30550).
T2 construct: BN/GRP receptor-positive MDA-MB-231, MCF7, T47D human breast cancer, and PC3 human prostate cancer lines; host or cells: MDA-MB-231, MCF7, T47D (human breast cancer), PC3 (human prostate cancer); intact cells
Nature of the data set: Saturation binding assay on T47D cells. The conditions noted are these: n = 3-5 experiments; for Bmax (apparent number of binding sites per cell): SD < 15%; for Kd: ~300,000 cells, 0.1-25 nM radiopeptide, 60 min, room temperature, mean ± SD. On the procedure: as §1

Data set [3] can be described thus: Radio-HPLC retention time as reflection of lipophilicity. In kind it is physicochemical. The conditions noted are these: chromatographic, econosphere C18 (10 μm, 250 × 4.6 mm), 0.1% TFA water/acetonitrile, 5 to 95% B over 30 min, 1.1 mL/min; radio detection; used as reflection of lipophilicity. On the procedure: The HPLC analysis and purification of the peptides were performed on a Shimadzu HPLC system using econosphere C18 reversed-phase column (10 μm, 250 × 4.6 mm). For all HPLC experiments, a gradient system of 0.1% (v/v) TFA in water (solvent A) and 0.1% (v/v) TFA in acetonitrile (solvent B) at a flow rate of 1.1 mL/min was used. The HPLC gradient began with a solvent composition of 95% A and 5% B from 0 to 2.5 min followed by a linear gradient of 95% A and 5% B to 5% A and 95% B over 30 min. The gradient remained at this position for 3 min before switching back to 95% A and 5% B for another 7 min. The major peak isolated and the acetonitrile was then slowly evaporated under a stream of nitrogen gas. Radiochemical purity was estimated by evaluating radioactivity peaks eluted for each ^68Ga-labeled peptide from the HPLC column and calculating the area under the peak (ROI). The main peak of each radiopeptide was isolated and reconstituted in sterile saline for in vitro and in vivo experiments. Radiolabeling of DOTA-coupled BN peptides with ^68Ga was accomplished simply by mixing ~ 20 μg BN peptide with sodium acetate buffer and ^68GaCl3 followed by heating to complete the labeling reaction. By this facile method, a high and reproducible radiolabeling of peptides with ^68Ga was achieved (up to 95%), with a specific radioactivity of greater than 250 Ci/mmol. […] A radiolabeling efficiency of greater than 90% was obtained in all cases, and it ranged between 90 and 95%. […] RP-HPLC retention times of the major peaks, ranging from 18.3 to 20.3 min, reflected slightly variable lipophilicity of these ^68Ga-complexes (Table 1).

A further data set deals with MDA-MB-231 tumors. Nature of the data set: in vivo. The note with it: for Uptake in Spleen / Radioactivity in Urine + bladder / Uptake in Blood / Uptake in Intestines (measured without their contents) / Uptake in Kidneys / Uptake in Liver / Uptake in Lungs / Uptake in Muscle / Uptake in Pancreas / Uptake in Stomach: female, nude, mouse, in vivo; for Uptake in Tumor: nude mice with MDA-MB-231 tumors, mean ± SD, n = 3-5. Format: in vivo, nude mice. On the procedure: BN/GRP receptor-positive MDA-MB-231 and PC3 cell lines (American Type Culture Collection, Rockville, USA) were grown as monolayers at 37 °C in a humidified atmosphere containing RPMI-1640 culture media with 10% fetal bovine serum (FBS) in tissue culture flasks. Twenty-four hours prior to conducting the tumor implantation, the media was replaced with RPMI-1640/10% FBS. The cells were grown to 80-90% confluency and harvested by trypsinization. After centrifugation, about 50 million cells were suspended in 1 mL media for implantation into mice. To prepare cells for inoculation, MDA-MB-231 or PC3 cancer cells with media were centrifuged, the media decanted, and the cell pellet was mixed with phosphate-buffered saline (PBS) to reach a concentration of approximately 5 million cells per 100 μL PBS. Human MDA-MB-231 breast cancer xenografts female mouse models were used for in vivo tumor-targeting experiments. For the implantation of tumor xenografts, approximately five million MDA-MB-231 cells in suspension of 100 μL sterile PBS were injected subcutaneously into the left thigh of each mouse. Tumors were allowed to grow for 4-6 weeks by which tumors had reached weights of 200-300 mg. After sufficient growth of tumors, animals were injected with 20-30 μCi of the radiotracers and the animals were sacrificed at specified time points. The uptake of ^68Ga-radiolabeled peptides in the tumors and other major body organs was calculated by γ-counting as described above.

Data set [4] deals with T3, BN/GRP receptor-positive MCF7 human breast cancer cells (Homo sapiens, UniProt P30550).
T3 construct: BN/GRP receptor-positive MDA-MB-231, MCF7, T47D human breast cancer, and PC3 human prostate cancer lines; host or cells: MDA-MB-231, MCF7, T47D (human breast cancer), PC3 (human prostate cancer); intact cells
Nature of the data set: Saturation binding assay on MCF7 cells. The note with it: n = 3-5 experiments; for Bmax (apparent number of binding sites per cell): SD < 15%; for Kd: ~300,000 cells, 0.1-25 nM radiopeptide, 60 min, room temperature, mean ± SD. On the procedure:
as §1

Molecules are shown by their SMILES. Numbered stars: 1 amine (or outer) side, 2 acyl side, 3 side chain; on linkers, the order of the positions; unused ones are H or OH. Square brackets hold non-standard residues; d marks the D form. Peptide text beside a SMILES is read from it. * marks the point of attachment. DOTA = O=C(O)CN1CCN(CC(=O)O)CCN(CC(=O)*)CCN(CC(=O)O)CC1; Cha = N[C@@H](CC1CCCCC1)C(=O)O; X1 = O=C(CCC(=O)[*:2])CN[*:1]; 4Abz = Nc1ccc(C(=O)O)cc1; Nle = CCCC[C@H](N)C(=O)O

On to `CCCC[C@H](NC(=O)[C@H](Cc1c[nH]cn1)NC(=O)[C@H](CC1CCCCC1)NC(=O)[C@@H](NC(=O)[C@H](C)NC(=O)[C@H](Cc1c[nH]c2ccccc12)NC(=O)[C@H](CCC(N)=O)NC(=O)[C@H](CS)NC(=O)CNC(=O)CNC(=O)CCC(=O)CNC(=O)CN1CCN(CC(=O)O)CCN(CC(=O)O)CCN(CC(=O)O)CC1)C(C)C)C(=O)N[C@@H](CCSC)C(N)=O` [^68Ga-DOTA-ALA-BN Cyclen, metal not drawn] ({DOTA}-[X1]GGCQWAV[Cha]H[Nle]M-NH2), for which the “Bmax (apparent number of binding sites per cell)” value is 2.12 × 10^5 sites/cell in data set [1], 9.90 × 10^4 sites/cell in data set [2] and 2.11 × 10^5 sites/cell in data set [4]. Further, the Kd in data set [1] came out at 9.7 ± 2.01 nM; in data set [2] it was 15.6 ± 3.47 nM; in data set [4], 13.7 ± 2.32 nM. Moreover, in data set [3], the “Radio-HPLC tR” value was 20.3 min. In the data set with MDA-MB-231 tumors (2 h), the “Uptake in Spleen” value came to 0.17 ± 0.02 % ID/g. The “Uptake in Tumor” value came to 1.82 ± 0.26 % ID/g in the data set with MDA-MB-231 tumors (1 h p.i.) and 0.84 ± 0.13 % ID/g in the data set on MDA-MB-231 tumors (2 h p.i.).
In the case of `CCCC[C@H](NC(=O)[C@H](Cc1c[nH]cn1)NC(=O)[C@H](CC1CCCCC1)NC(=O)[C@@H](NC(=O)[C@H](C)NC(=O)[C@H](Cc1c[nH]c2ccccc12)NC(=O)[C@H](CCC(N)=O)NC(=O)[C@H](CS)NC(=O)CNC(=O)CNC(=O)CCC(=O)CNC(=O)CN1CCN(CC(=O)O)CCN(CC(=O)O)CCN(CC(=O)O)CC1)C(C)C)C(=O)N[C@@H](CCSC)C(N)=O` [^68Ga-DOTA-ALA-BN Tris-, metal not drawn] ({DOTA}-[X1]GGCQWAV[Cha]H[Nle]M-NH2), in data set [1], the “Bmax (apparent number of binding sites per cell)” value is given as 2.63 × 10^5 sites/cell and the Kd was found to be 13.5 ± 2.53 nM. In data set [2], the “Bmax (apparent number of binding sites per cell)” value is on record as 9.68 × 10^4 sites/cell and the equilibrium dissociation constant (Kd) came to 16 ± 4.01 nM. Besides, in data set [3], the “Radio-HPLC tR” value worked out at 20.3 min. In addition, in the data set with MDA-MB-231 tumors (1 h), the “Radioactivity in Urine + bladder” value was 54.0 ± 5.78 % injected dose per tissue, the “Uptake in Blood” value is listed as 0.85 ± 0.15 % ID/g, the “Uptake in Intestines (measured without their contents)” value amounted to 1.05 ± 0.18 % ID/g and the “Uptake in Kidneys” value is recorded as 5.12 ± 0.69 % ID/g. In addition, in the data set on MDA-MB-231 tumors (1 h), the “Uptake in Liver” value amounted to 2.31 ± 0.38 % ID/g, the “Uptake in Lungs” value was 2.35 ± 0.33 % ID/g, the “Uptake in Muscle” value worked out at 0.39 ± 0.03 % ID/g and the “Uptake in Pancreas” value is listed as 1.19 ± 0.15 % ID/g. In addition, in the data set with MDA-MB-231 tumors (1 h), the “Uptake in Spleen” value is on record as 0.44 ± 0.06 % ID/g and the “Uptake in Stomach” value amounted to 0.83 ± 0.21 % ID/g. In addition, in the data set with MDA-MB-231 tumors (2 h), the “Radioactivity in Urine + bladder” value is 61.0 ± 7.10 % injected dose per tissue, the “Uptake in Blood” value is 0.30 ± 0.04 % ID/g, the “Uptake in Intestines (measured without their contents)” value worked out at 0.73 ± 0.13 % ID/g and the “Uptake in Kidneys” value worked out at 3.56 ± 0.50 % ID/g. Also, in the data set with MDA-MB-231 tumors (2 h), the “Uptake in Liver” value stood at 1.50 ± 0.27 % ID/g, the “Uptake in Lungs” value is given as 0.70 ± 0.16 % ID/g, the “Uptake in Muscle” value amounted to 0.23 ± 0.02 % ID/g and the “Uptake in Pancreas” value is on record as 0.71 ± 0.10 % ID/g. In the data set on MDA-MB-231 tumors (2 h), the “Uptake in Spleen” value came to 0.35 ± 0.03 % ID/g and the “Uptake in Stomach” value came to 0.37 ± 0.07 % ID/g. In addition, the “Uptake in Tumor” value with MDA-MB-231 tumors (1 h p.i.) was 1.78 ± 0.40 % ID/g. Further, the “Uptake in Tumor” value in the data set on MDA-MB-231 tumors (2 h p.i.) stood at 1.25 ± 0.21 % ID/g. Besides, in data set [4], the “Bmax (apparent number of binding sites per cell)” value was 1.05 × 10^5 sites/cell and the dissociation constant (Kd) is 12.3 ± 1.94 nM.
Consider `CCCC[C@H](NC(=O)[C@H](Cc1c[nH]cn1)NC(=O)[C@H](CC1CCCCC1)NC(=O)[C@@H](NC(=O)[C@H](C)NC(=O)[C@H](Cc1c[nH]c2ccccc12)NC(=O)[C@H](CCC(N)=O)NC(=O)[C@H](CS)NC(=O)CNC(=O)CNC(=O)c1ccc(NC(=O)CN2CCN(CC(=O)O)CCN(CC(=O)O)CCN(CC(=O)O)CC2)cc1)C(C)C)C(=O)N[C@@H](CCSC)C(N)=O` [^68Ga-DOTA-Abz-BN Cyclen, metal not drawn] ({DOTA-4Abz}-GGCQWAV[Cha]H[Nle]M-NH2), for which the results for the “Bmax (apparent number of binding sites per cell)” value in data set [1], in data set [2] and in data set [4] were 4.30 × 10^5 sites/cell, 1.17 × 10^5 sites/cell and 5.12 × 10^5 sites/cell, respectively. Moreover, in data set [3], the “Radio-HPLC tR” value is given as 19.2 min. In addition, the entries for the “Uptake in Tumor” value in the data set on MDA-MB-231 tumors (1 h p.i.) and in the data set with MDA-MB-231 tumors (2 h p.i.) were 1.84 ± 0.40 % ID/g and 1.30 ± 0.37 % ID/g, respectively.
